Results published in patent publication US20200399311A1.
Non-standard residues stand in square brackets, D forms with d. No end group written: not given here. Hyp = O=C(O)[C@@H]1C[C@@H](O)CN1; NMeI = CC[C@H](C)[C@H](NC)C(=O)O; hArg = N=C(N)NCCCC[C@H](N)C(=O)O; Cit = NC(=O)NCCC[C@H](N)C(=O)O; Nle = CCCC[C@H](N)C(=O)O; APPA = not defined here; Aib = CC(C)(N)C(=O)O

Experiments:
[1] = molecular target: Purified recombinant human PCSK9 (His-tagged, BPS Biosciences) (human) (UniProt Q8NBP7); assay: SPR (Biacore T200), PCSK9 amine-coupled on chip, peptide at 100 µM
[2] = molecular target: Purified recombinant human PCSK9 (His-tagged, BPS Biosciences) (human) (UniProt Q8NBP7); assay: SPR (Biacore T200), PCSK9 amine-coupled on chip, peptide at 50 µM

Sequence of Purified recombinant human PCSK9 (His-tagged, BPS Biosciences) (human) (Q8NBP7 31-692 limits assumed): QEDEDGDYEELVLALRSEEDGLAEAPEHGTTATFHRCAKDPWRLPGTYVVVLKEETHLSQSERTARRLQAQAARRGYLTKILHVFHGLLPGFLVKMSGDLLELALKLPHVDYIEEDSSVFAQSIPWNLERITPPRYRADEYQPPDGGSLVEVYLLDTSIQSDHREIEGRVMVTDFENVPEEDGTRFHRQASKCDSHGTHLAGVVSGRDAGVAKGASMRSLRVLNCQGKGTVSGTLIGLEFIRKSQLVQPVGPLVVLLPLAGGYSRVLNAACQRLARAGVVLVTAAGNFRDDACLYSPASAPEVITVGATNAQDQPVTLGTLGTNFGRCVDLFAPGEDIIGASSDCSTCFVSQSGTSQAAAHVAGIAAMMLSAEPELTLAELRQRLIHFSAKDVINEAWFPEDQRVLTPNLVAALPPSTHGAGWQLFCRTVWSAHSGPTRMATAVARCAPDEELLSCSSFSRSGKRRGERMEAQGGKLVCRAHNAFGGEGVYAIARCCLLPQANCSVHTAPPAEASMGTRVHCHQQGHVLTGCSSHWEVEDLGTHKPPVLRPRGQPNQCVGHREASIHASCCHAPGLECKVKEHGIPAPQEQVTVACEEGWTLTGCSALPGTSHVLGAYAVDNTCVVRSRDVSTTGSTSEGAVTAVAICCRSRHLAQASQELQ

Binder | Binding - Response Unit (RU) [1] [RU] | Binding - Response Unit (RU) [2] [RU]
SIPWN[Aib]ERITPC [Short chain peptide Seq. ID. No. 10 (SIPWN-Aib-ERITPC)] | 7.5 | 3
S[NMeI]IPWNLERITPC [Short chain peptide Seq. ID. No. 15 (S-(N-Me-Ile)-…)] | 29.9 | 11.4
SIPWNLE[hArg]ITPC [Short chain peptide Seq. ID. No. 6 (SIPWNLE-Har-ITPC)] | 17.5 | 6.55
[Aib]IPWNLERITPC [Short chain peptide Seq. ID. No. 14 (Aib-…)] | 15 | 7.1
SIP[Bip(OMe)]NLERITPC [Short chain peptide Seq. ID. No. 19 (SIP-Bip(OMe)-NLERITPC)] | 85.9 | 35.1
SIPWNLER[Aib]TPC [Short chain peptide Seq. ID. No. 5 (SIPWNLER-Aib-TPC)] | 7.1 | 2.3
SIPWN[Nle]ERITPC [Short chain peptide Seq. ID. No. 7 (SIPWN-Nle-ERITPC)] | 16 | 6.65
SIPWNLE[Cit]ITPC [Short chain peptide Seq. ID. No. 12 (SIPWNLE-Cit-ITPC)] | 6.7 | 3.1
SIPWNLERI[Aib]PC [Short chain peptide Seq. ID. No. 13 (…-Aib-PC)] | 37.4 | 9.75
SI[Hyp]WNLERITPC [Short chain peptide Seq. ID. No. 8 (SI-Hyp-…)] | 13.2 | 5.7
SIPWNLER[Nle]TPC [Short chain peptide Seq. ID. No. 4 (SIPWNLER-Nle-TPC)] | 30 | 13.1
SIP[APPA]NLERITPC (reading uncertain) [Short chain peptide Seq. ID. No. 18 (SIP-APPA-NLERITPC)] | 17.9 | 10.2
